Laboratory results: paper PMC6477676, “Staufen2-mediated RNA recognition and localization requires combinatorial action of multiple domains”
Numbering of substitutions follows the chain as printed.

Experiments:
[1] = target: T1, mStau2 dsRBD1-2 H36A (Mus musculus, UniProt Q8CJ67 8-181, H36A); assay: SPR; Hill n 1; SPR: HBS-EP (10 mM HEPES pH 7.4, 150 mM NaCl, 3 mM EDTA, 0.005% P20); EMSA: 5 nM RNA, protein buffer (40 mM Bis-Tris pH 7, 150 mM NaCl, 2 mM DTT presumed), 4% glycerol, 30 ug/mL yeast tRNA, RT; NMR: 150 mM NaCl, 20 mM Na phosphate pH 7.0, 5 mM DTT, 298 K; conditions: protein: recombinant; label: 5' 32P (EMSA); biotin (SPR); hairpin, 18 bp stem
T1 sequence: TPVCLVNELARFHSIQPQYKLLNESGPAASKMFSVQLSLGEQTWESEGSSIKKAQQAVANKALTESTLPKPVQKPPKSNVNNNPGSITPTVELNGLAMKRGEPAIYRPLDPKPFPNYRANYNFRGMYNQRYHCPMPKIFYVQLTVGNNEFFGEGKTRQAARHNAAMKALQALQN

[2] = target: T2, mStau2 dsRBD1-2 E15A (Mus musculus, UniProt Q8CJ67 8-181, E15A); assay: as above; conditions: protein: recombinant; label: 5' 32P (EMSA); biotin (SPR); hairpin, 18 bp stem
T2 sequence: T1 sequence with E8A, A29H

[3] = target: T3, mStau2 dsRBD1-4 (Mus musculus, UniProt Q8CJ67 8-375); assay: SPR; Hill n 1.6; text says 357 nM; SPR: HBS-EP (10 mM HEPES pH 7.4, 150 mM NaCl, 3 mM EDTA, 0.005% P20); EMSA: 5 nM RNA, protein buffer (40 mM Bis-Tris pH 7, 150 mM NaCl, 2 mM DTT presumed), 4% glycerol, 30 ug/mL yeast tRNA, RT; NMR: 150 mM NaCl, 20 mM Na phosphate pH 7.0, 5 mM DTT, 298 K; conditions: protein: recombinant; tags: HisSUMO removed; label: 5' 32P (EMSA); biotin (SPR); hairpin, 18 bp stem
T3 sequence: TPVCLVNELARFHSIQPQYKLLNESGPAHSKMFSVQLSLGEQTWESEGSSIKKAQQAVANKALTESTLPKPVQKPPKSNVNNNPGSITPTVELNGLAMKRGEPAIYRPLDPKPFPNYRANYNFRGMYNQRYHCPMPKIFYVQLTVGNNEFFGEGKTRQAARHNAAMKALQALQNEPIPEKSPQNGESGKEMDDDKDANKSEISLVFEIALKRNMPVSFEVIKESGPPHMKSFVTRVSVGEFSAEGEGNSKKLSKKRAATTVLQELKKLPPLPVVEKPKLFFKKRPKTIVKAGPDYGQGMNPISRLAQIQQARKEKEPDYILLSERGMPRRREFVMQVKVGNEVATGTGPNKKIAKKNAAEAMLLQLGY

[4] = target: T4, mStau2 dsRBD1-2 F40A (Mus musculus, UniProt Q8CJ67 8-181, F40A); assay: SPR; Hill n 1; SPR: HBS-EP (10 mM HEPES pH 7.4, 150 mM NaCl, 3 mM EDTA, 0.005% P20); EMSA: 5 nM RNA, protein buffer (40 mM Bis-Tris pH 7, 150 mM NaCl, 2 mM DTT presumed), 4% glycerol, 30 ug/mL yeast tRNA, RT; NMR: 150 mM NaCl, 20 mM Na phosphate pH 7.0, 5 mM DTT, 298 K; conditions: protein: recombinant; label: 5' 32P (EMSA); biotin (SPR); imperfect hairpin, 26 bp with two bulges
T4 sequence: T1 sequence with A29H, F33A

[5] = target: T1, mStau2 dsRBD1-2 H36A; assay: SPR; Hill n 0.9; SPR: HBS-EP (10 mM HEPES pH 7.4, 150 mM NaCl, 3 mM EDTA, 0.005% P20); EMSA: 5 nM RNA, protein buffer (40 mM Bis-Tris pH 7, 150 mM NaCl, 2 mM DTT presumed), 4% glycerol, 30 ug/mL yeast tRNA, RT; NMR: 150 mM NaCl, 20 mM Na phosphate pH 7.0, 5 mM DTT, 298 K; conditions: protein: recombinant; label: 5' 32P (EMSA); biotin (SPR); imperfect hairpin, 26 bp with two bulges
[6] = target: T5, mStau2 dsRBD1-2 K59A (Mus musculus, UniProt Q8CJ67 8-181, K59A); assay: as above; conditions: protein: recombinant; label: 5' 32P (EMSA); biotin (SPR); imperfect hairpin, 26 bp with two bulges
T5 sequence: T1 sequence with A29H, K52A

B1: SRS2+5 (structured_RNA)
RNA: GGUAUAUACAUGCACAUGCAAUUUGUGUAUGUGUAUGUAUAUA
With B1 as the binder, how does the Kd [1] read?
Its Kd is 701 ± 386 nM.

What about the Kd [2] of the same binder?
The Kd was 132 ± 31 nM.

What about the Kd [3] of the same binder?
Its Kd is 330 ± 148 nM.

B2: SRS* (SRS3) (structured_RNA)
RNA: GGUAUGUGUGAAUGUGCAUGAAUAUAUAUAUAUAUGCAUAUAUAUAUUUGUAUAUGUUCACACAUG
For B2, which Kd [4] is on record?
Its Kd is 769 ± 427 nM.

What about the Kd [5] of the same binder?
The Kd was 499 ± 149 nM.

What about the Kd [6] of the same binder?
The Kd was 624 ± 142 nM.
